experiment: soluble on expression in E. coli; label from the status in PepcDB or PDB records

Row | Sequence | soluble on expression in E. coli
1 | MEIAFLLNGETRRVRIEDPTQSLLELLRAEGLTGTKEGCNEGDCGACTVMIRDAAGSRAVNACLMMLPQIAGKALRTIEGIAAPDGRLHPVQQAMIDHHGSQCGFCTPGFIVSMAAAHDRDRKDYDDLLAGNLCRCTGYAPILRAAEAAAGEPPADWLQADAAFTLAQLSSGVRGQTAPAFLPETSDALADWYLAHPEATLIAGGTDVSLWVTKALRDLPEVAFLSHCKDLAQIRETPDGYGIGAGVTIAALRAFAEGPHPALAGLLRRFASEQVRQVATIGGNIANGSPIGDGPPALIAMGASLTLRRGQERRRMPLEDFFLEYRKQDRRPGEFVESVTLPKSAPGLRCYKLSKRFDQDISAVCGCLNLTLKGSKIETARIAFGGMAGVPKRAAAFEAALIGQDFREDTIAAALPLLAQDFTPLSDMRASAAYRMNAAQAMALRYVRELSGEAVAVLEVMP | soluble
2 | MEIDELPSGTQDQKPDIDMNEIVGTHDILMLCFDTLRYDVSVAEEASGGTPVLNSCGNGWEKRHAPGNFTYPSHFAIFAGFLPSPAEPHMLRNRKWLFFPFQAGTGRIPPEGSYAFKEATFVQSLAQVGYETICIGGVNFFSKRNDIGRVFPGYFNKSYWLPTFGCTDKNSAANQVDFAVDKLEKYPADRKVFMYINFSAIHYPNCHYVEGKKKDDKESHAAALRYVDSQLPRLFEAFRRRSDTLVIALSDHGTCYGEDGYEYHCISHEKVYTVPYKHFILRKLEHHHHHH | soluble
3 | MEIGVPKEIKNQEFRVGLSPSSVRTLVEAGHTVFIETQAGIGAGFADQDYVQAGAQVVPSAKDAWSREMVVKVKEPLPAEYDLMQKDQLLFTYLHLAAARELTEQLMRVGLTAIAYETVELPNRSLPLLTPMSIIAGRLSVQFGARFLERQQGGRGVLLGGVPGVKPGKVVILGGGVVGTEAAKMAVGLGAQVQIFDINVERLSYLETLFGSRVELLYSNSAEIETAVAEADLLIGAVLVPGRRAPILVPASLVEQMRTGSVIVDVAVDQGGCVETLHPTSHTQPTYEVFGVVHYGVPNMPGAVPWTATQALNNSTLPYVVKLANQGLKALETDDALAKGLNVQAHRLVHPAVQQVFPDLA | soluble
4 | MEIKERIQLLLSEMNRGVYEKEAEIGLSLLAALAGESILLLGPPGVAKSMVARRLKRAFVDARAFEYLMSRFSTPDEIFGPVSISRLKESDKYERAVDGYLPTADVVFLDEIWKAGPAIQNTLLTVINEKLFRNGDTELKLPLKLLVAASNELPTQGEGLEALWDRFLIRIISTCVKQEEAFYQMLLDDDDEEEQEACRWQISDEEYAGWQKEIRQIKVSAEVLSCITEIRKNLEKVEIQGSEVHRNVYVSDRRWKNIVKLLKASAFIHGRKEVCLTDLLPVYHCLWNEPEECADIRQIVVRALFVPYVKEIAAINLSLKSDLKVSRVREALEKARQKGDRRDDDLMIIDHFYYQIENHGTGNTYIFIVDYKNLKEYSPKDVPATGVMYADPLNPKRTIIRTFSDATKMKEQGAERVTLYRDEKNLYINGVRFPMRRLKRGEQQQLWLGNMTLTDRDYETELETAHGRIEKLVKDLSENIFISEEDKKGVAQYVATLRKEIAWARVDVRKLRYGDES | not soluble
5 | MEIKRILVSRTDKIGDLVLSIPSFFMLKKMYPNAELVVIVRKYNVDIVKNLPYIDRIVIIDEYSKAELLEKIAYFKADVFIALYNDSYIASLARASKAKIKIGPISKLSSFFTYNKGVLQKRSLSLKNEGQYNLDLVTKLDRKRFAILYELNTKLEHHHHHH | soluble
6 | MEKIFKVTSDSGIHARPATLLVNTASKFGSDINLEYNGKNVNLKSIMGVMSLGIQQNAEIKITANGDDAAQALAAIEETMKNEGLGE | not soluble
7 | MEKIWPTGAQEETLMTQETNQNEVVVQNNAVAKTNTGSNYITAILEETKQGFVEANNGLDMDFVRMGEWLTVTKKGNFVEKDDENVSYGDNIDVVIGYGEQRWSVWGLEESPEAGQLIVAERTKEEAEIVLNQWLAENPQAQERYELDAIQLRYMASVVPVSTLRPDDFPRIYLMSFSPTDTIIFGRFAMNVYTGKYKALEIPSKLGVNRIVTRLVTAERKSRTNASNQWIGIDFQPVGVFKPEDYGINVEETEQAEKASE | not soluble
8 | MEKKAFFQQLDERTDIRYTDSGLKIFRLKFPRAHLRLCNVKIDFGSRDVCIRAESGDTLLPYGTAHFLEHLLFWHNGRNLYSDFFAHGALLNAFTTYTDTNFMFTSLPDRLRQTIPILLDALWNHSFDKKIVAQEKAVITSEIQTAHLNHQLSYHYQLISMLSPSSPAAVFPAGRIEDIEALDISDLQKAYKAAYQAHRMTLFLIGGSENTETLLPPHLQLEKRPDYHAERKIIPACPPVLSQKMMLGDEERMEDTWTGLQIGALPGQNDLLSIKLYWDIAARILFQLDSPFFQEIQQTYRLEIDRLSAETYIYEDGGFLILHSQGTHSSAYIDVASYYVTQKKEQVAAWLQYGKDSLTDAIIYDSDYVRKCFEWAAECDRCDCSFLDMYHIIQDMDAQVFLSLIDAMASSNKAIIHVSQKEAIRQ | not soluble
9 | MEKKYRKEPVEIPPEIAETAAGGKVPETDVTEQYPQMEEMNGTEAAGEMPQIGPMYPIPQVPAQPTEPAQQMGQMPCMQPIPQMVPVVCCPFLLQMHCPMMPMDYSSMSHPTYQTAPQAMPQTMQAVPQPATPAQYAPGPCGSPYYPQHSGSPCGYGSDMYDQNYNSSMYNPSMYNPMRPGYY | not soluble
10 | MEKLEALKRLFPGKVDLSESERLRHGKDEGYPEARPVLAVVYPEGVEDVQKALRWAREWGVAVIPFGAGTSLEGHLYPVREAISLDLSRMNRVLEVRPQDFSCVVEPGLTRKALNEALKGTGLFFPVDPGADASLGGMAATNASGTTTVRYGGMRQNVLALQVVLASGEVLELGRGVRKTSSGYDLKDLFIGSEGTLGVITRLTLRLHPLPEHVHTLRVFFPGVEEAAEASYRIMASGLPVARLELLDELAMRALNRYLKAGFPERPALFLEFHASTKEALEAERASALELVREAGALEVEAATTEEERRRQWEARHQAYWALVHLFPGHRFMITDTAVPLSRLPEMVRFAQGLLREMGLTGNILGHVGDGNFHTLIPVLPEDYPKAEAYAERLVEKALELGGTCTAEHGVGLRKRKFLPKEHGPALEWMRRLKALFDPEGLLNPGKVV | soluble
11 | MEKNKSSSPDFSVRDFFKRFPDDEACLEHIFNVRFGARHVCRACGVESTFHRMSDRRAFACAACGDHVYPTAGTIFQDTRTPLQVWFYAIYLFVTTRHGVSGKELQRQLGVTYKTAWRIGHKIREQMDKHDLKAMLQGHVEIDEAYIGGKRPGKRGRGAAGKTIVMGFKQRGGRLVTEIVPDVKLKTLRAETLKTVDAGATVSTDELYSYSLLKGEGYTHVAVKHGAKQWTIYDAETDTMHHTNHVESFWRHFKHSIRGTHVSISQRHMRKYLDEFTFRANHRGEVNLMFDRLVAAFLEHHHHHH | soluble
12 | MEKNMRPYTVLWADDEIDLLKPHILFLEQKGYQVTPVLSGNDAIEAVQNNDFDIVFLDENMPGIGGLDALQKIKELKPYTPVVMITKSEEEHIMTQAIGGKIADYLIKPVNPNQLLLSLKKNLQQHSIISETTNTNYRQEFVQLGTQMSGKLSFEEWKELYRRIVFWEIELEQADRQMGELLEMQKQEANRLFARFVTQNYREWIAKPDTRPTMSPDLFKQKVFPLLDNGEKVFFILIDNFRQDQWESVKSMLSEFYTFEEDMYLSILPTATQYARNAIFSGLMPLQIEKMFPDLWVDEESEEGKNLNEEPMIRTLIERYRKHYSFSYNKVYETKFGERLLGQIRSLSQNQLNVIVLNFVDMMSHARTDSKMIRELASNEAAYRSLTKSWFKHSTTYNLFRSIAEMGYKVVLTTDHGTIQVKNPVKVIGDRSTNTNLRYKIGKNLDYNPKEVFEIKDPASVGLPHNNLSDKFIFTKEDDFFAYPNNYNYYVQYYRNTFQHGGISLEEMLVPVITMQPK | not soluble
13 | MEKPGHETDIAGSRRTHLKKSFKSTLRHLLTACSKQVVVNLHQTIEEEFDEQCHETQVGPILDTVEELVEEQSLDPLFSDKTDVMAIAYDLTTSKKNEIQKLTVLLQRAEEQNRQKEARISMLKKQTQDLSGTADRIEKLNAGVSGYFEGKDKLPPI | soluble
14 | MEKQPNKLIREKSPYLLQHAWNPVDWHPWGEEAFSRARETGRPIFLSSGYSTCHWCHVMEHESFENAETAALLNRHFVPVKLDREEHPDVDHLYMMFVQATTGRGGWPMSVWMTPDLKPFFGGSYFPATERWGMPSFRSVLEHLANLWEHDRPRLLASAGSIMDQLSGLTRP | not soluble
15 | MEKQQDLPFPYEFRELNPEEDKLVKANLGAFPTTYVKLGPKGYMVYRPYLKDAANIYNMPLRPTDVFVASYQRSGTTMTQELVWLIENDLNFEAAKTYMSLRYIYLDGFMIYDPEKQEEYNDILPNPENLDMERYLGLLEYSSRPGSSLLAAVPPTEKRFVKTHLPLSLMPPNMLDTVKMVYLARDPRDVAVSSFHHARLLYLLNKQSNFKDFWEMFHRGLYTLTPYFEHVKEAWAKRHDPNMLFLFYEDYLKDLPGCIARIADFLGKKLSEEQIQRLCEHLNFEKFKNNGAVNMEDYREIGILADGEHFIRKGKAGCWRDYFDEEMTKQAEKWIKDNLKDTDLRYPNMEL | soluble
16 | MEKTYKLPIVLGTDPENTIRIDKLPPLKGAFAVHIHESETENNAHIKLEYGDTEYCLSLYVFNYPKFLRNETVRVRNYDLWPKWIMFAARLPNGKLHPKSGGKVYREDAVIVGEGNYELENPFISFKYSDGRILNFRIEFYRYLRYKSPKYGPSFRSEYWFIGVD | not soluble
17 | MEKVEHLNLNIQNILEDVDIDTASSSSDDEPEQAVVKQEKLEAGEQIEEQYDTDSDYDDDIVEFAEATGDFTKKLNAARLNTIGPNAARNRLTVDVERHADTSEDRKRKRVKDRADRATVEQVLDPRTRLVLFRLLQRGTLLNIDGCISTGKEANVYHATGTDNDLAIKIYKTSILTFKDRERYVTGEFRYRHGYCKSNPRKMVAVWAEKEMRNLARMHEVGLPVPKPHLLKGHVLVMDFLGKDGWPAPLLKNANLSQEDAEPMYVGLVRDMRRLYRECKLVHADLSEFNMLVHDGKLWIIDVSQSVEQDHPHALEFLRMDCNNVNKFFRELGVPVLSVRRLFEVIVDPLMSSKEMETIIEEERVLVNSEDDSLFMNAFIPHKLEHVLHFERDGKLAKEGVEANNPFQNIVSKIDLKGDGFGEEHDDSDDNDDEENGKKSRKKRAEPTEEEIQEKERKIAMHTRNREETAEERKERKAAVKEEKREQRKEKIPKHLKKRAHRQHMKYQSSPWSTLINCLHTLVP | not soluble
18 | MELKEELLRGIYGFGFEKPSAIQKSAVAPCTTGKDVTIQSQAGSGKTVISLIDILQGIDCEDAHLQVILLAPQRGMAQRAHEQLKSLGRNLNVNATCLGFDTTAENDKISHVLMGTPKDFLSNIPSDTSRIKMFVLDEADEMLSKGFKDQIYEVFRSMPQDVQVVLLSATMPSEVLDVTNRFMRDPIRILVKKDELTLEGIRQFYINVQKDEWKFNCLCDLLKTSRETQALIFCNTRRRVTQLTEQLMSIPIKVSCFHGNMEHNEREDMVKDFNSRNTRVLVTTDLMARGMNIRKSLIINYDVSGNMENYMLRNGRQGNFGSKGLPISFFTENDISDLKKIENHYSTRIEEMPESFLEYLDEN | not soluble
19 | MELMKDDRYSPDWKNIAITKKQSVHWVCEWCGVQCLKPGEGKGLLKEERYRLRMAVHHCDYDPGNNSPSNLMAVCSPCHLYYHRRQQGNITPGQLKITINLEHHHHHH | soluble
20 | MELTLQKYGSYEKFEQATGGSLLSKTRIWSHVRKYMVKEGCLGEIVVHLTEDLLSRASMTVVNGCPTLTINISTAREHWLEGMLRHEIGTHYFRGINNLQQPWNSWIGRKKHELKPNNPTEEGLASIHSVLFRKDPFLWRAALLYYTVYKASHMSFCELFKDIGKFVKDPNTRWDYCVRAKRGWTDTSEPGCFSKDQVYLDGVLQILRFRESIDFHLLTALGKVSYEDVDRLKELAVTENMRVPHFLHDHSRYMEHLERIMEVNELTDAELKNLI | not soluble
21 | MENFAYYTPTRLIFGKGLAIITPRWMRHILNDHTLERFVKFSVDIYGLLRLRKRTFMKYLKHHCRIYEEYNRGRIFGQGVCLFIIYYKLEHHHHHH | not soluble

From the DeepSol protein solubility set
